{
  "source": "patent US6949522B2",
  "about": "“β-2′- or 3′-halonucleosides” (Pharmasset, Inc., priority 2001, dated 2005)",
  "proteins": {"B1": {"name": "adenosine deaminase (EC.3.5.4.4. from calf intestinal mucosa) (Bos taurus) (protein)", "chain": "MAQTPAFNKPKVELHVHLDGAIKPETILYYGRKRGIALPADTPEELQNIIGMDKPLSLPEFLAKFDYYMPAIAGCREAVKRIAYEFVEMKAKDGVVYVEVRYSPHLLANSKVEPIPWNQAEGDLTPDEVVSLVNQGLQEGERDFGVKVRSILCCMRHQPSWSSEVVELCKKYREQTVVAIDLAGDETIEGSSLFPGHVKAYAEAVKSGVHRTVHAGEVGSANVVKEAVDTLKTERLGHGYHTLEDATLYNRLRQENMHFEVCPWSSYLTGAWKPDTEHPVVRFKNDQVNYSLNTDDPLIFKSTLDTDYQMTKNEMGFTEEEFKRLNINAAKSSFLPEDEKKELLDLLYKAYGMPSPASAEQCL"}},
  "substrate": "Nc1ncnc2c1ncn2[C@@H]1O[C@H](CO)[C@@H](O)[C@H]1O",
  "assay": "purified protein, by the assay type",
  "conditions": "other: 25° C., phosphate buffer pH 7.4, substrate of ADA",
  "experimental": "Assays were performed at 25° C. in phosphate buffer solution (pH 7.4) with substrate concentrations in the range of 15-100 μM and with 0.15 unit of adenosine deaminase (EC.3.5.4.4. from calf intestinal mucosa). The assays were monitored with a UV spectrometer at 265 nm. […] The concentration (ct) of each substrate at a certain time (t) was calculated from the absorbance (At) at that time (t), where it was assumed that the total change of absorbance (A0−A∞) was directly related to the disappearance of the substrate.^35 Initial hydrolysis rates for each substrate concentration were measured manually through graphical curve fitting of the concentration versus time data for reaction of each substrate. From Lineweaver-Burke plot of these initial rates, Vmax (maximum velocity) and KM (Michaelis constant) were obtained for each substrate and kcat was also calculated with 0.15 unit of the enzyme (M.W. 33,000) in 2 mL of buffer solution.",
  "data": [
    {"protein": "B1", "values": [
      {"measurement": "Km", "result": 24.5, "unit": "µM"},
      {"measurement": "kcat", "result": 76.4, "unit": "s⁻¹"},
      {"measurement": "kcat/Km", "result": "3.1e+06", "unit": "M⁻¹ s⁻¹"}
    ]}
  ]
}
